Laboratory results: patent US20150307561

Columns and labels:
Experiment in all cases: cell_activity
[1] = test system: TALEN L (L538), canonical RVDs (synthetic (Xanthomonas TALE scaffold)); conditions: cold shock
[2] = test system: TALEN L*, non-canonical RVDs (synthetic (Xanthomonas TALE scaffold))
[3] = test system: TALEN L*+17 (synthetic (Xanthomonas TALE scaffold)); conditions: for off-target activity reduction (fold reduction vs L+17): L*+17 homodimer at +17_OT1
[4] = test system: TALEN L+17 (synthetic (Xanthomonas TALE scaffold)); conditions: K562, partner R2+17, cold shock
[5] = test system: TALEN R (R557), canonical RVDs (synthetic (Xanthomonas TALE scaffold)); conditions: cold shock
[6] = test system: TALEN R*, non-canonical RVDs (synthetic (Xanthomonas TALE scaffold)); conditions: cold shock
[7] = test system: TALEN R 102102 (synthetic (Xanthomonas TALE scaffold)); conditions: K562, partner TALEN L
[8] = test system: TALEN R 102105 (synthetic (Xanthomonas TALE scaffold)); conditions: K562, partner TALEN L
[9] = test system: TALEN R 102109 G34R in repeat 8 (synthetic (Xanthomonas TALE scaffold)); conditions: K562, partner TALEN L
[10] = test system: TALEN R 102112 (synthetic (Xanthomonas TALE scaffold)); conditions: K562, partner TALEN L
[11] = test system: TALEN R 102115 (synthetic (Xanthomonas TALE scaffold)); conditions: K562, partner TALEN L
[12] = test system: TALEN R 102123 (synthetic (Xanthomonas TALE scaffold)); conditions: K562, partner TALEN L
[13] = test system: TALEN R 102124 (synthetic (Xanthomonas TALE scaffold)); conditions: K562, partner TALEN L
[14] = test system: TALEN R 102128 (synthetic (Xanthomonas TALE scaffold)); conditions: K562, partner TALEN L
[15] = test system: TALEN R 102129 (synthetic (Xanthomonas TALE scaffold)); conditions: K562, partner TALEN L
[16] = test system: TALEN R 102146 (synthetic (Xanthomonas TALE scaffold)); conditions: K562, partner TALEN L
[17] = test system: TALEN R 102148 (synthetic (Xanthomonas TALE scaffold)); conditions: K562, partner TALEN L
[18] = test system: TALEN R 102150 (synthetic (Xanthomonas TALE scaffold)); conditions: K562, partner TALEN L
[19] = test system: TALEN R 102151 (synthetic (Xanthomonas TALE scaffold)); conditions: K562, partner TALEN L
[20] = test system: TALEN R 102156 (synthetic (Xanthomonas TALE scaffold)); conditions: K562, partner TALEN L
[21] = test system: TALEN R 102158 (synthetic (Xanthomonas TALE scaffold)); conditions: K562, partner TALEN L
[22] = test system: TALEN R 102159 (synthetic (Xanthomonas TALE scaffold)); conditions: K562, partner TALEN L
[23] = test system: TALEN R 102161 (synthetic (Xanthomonas TALE scaffold)); conditions: K562, partner TALEN L
[24] = test system: TALEN R 102162 (synthetic (Xanthomonas TALE scaffold)); conditions: K562, partner TALEN L
[25] = test system: TALEN R 102177 (synthetic (Xanthomonas TALE scaffold)); conditions: K562, partner TALEN L
[26] = test system: TALEN L 102002 (synthetic (Xanthomonas TALE scaffold)); conditions: K562, partner TALEN R
[27] = test system: TALEN L 102006 (synthetic (Xanthomonas TALE scaffold)); conditions: K562, partner TALEN R
[28] = test system: TALEN L 102010 (synthetic (Xanthomonas TALE scaffold)); conditions: K562, partner TALEN R
[29] = test system: TALEN L 102035 (synthetic (Xanthomonas TALE scaffold)); conditions: K562, partner TALEN R
[30] = test system: TALEN L 102038 (synthetic (Xanthomonas TALE scaffold)); conditions: K562, partner TALEN R
[31] = test system: TALEN L 102041 (synthetic (Xanthomonas TALE scaffold)); conditions: K562, partner TALEN R
[32] = test system: TALEN L 102043 (synthetic (Xanthomonas TALE scaffold)); conditions: K562, partner TALEN R
[33] = test system: TALEN L 102046 (synthetic (Xanthomonas TALE scaffold)); conditions: K562, partner TALEN R; 30.1 in Table 4
[34] = test system: TALEN L 102049 (synthetic (Xanthomonas TALE scaffold)); conditions: K562, partner TALEN R
[35] = test system: TALEN L 102052 (synthetic (Xanthomonas TALE scaffold)); conditions: K562, partner TALEN R
[36] = test system: TALEN L 102056 (synthetic (Xanthomonas TALE scaffold)); conditions: K562, partner TALEN R
[37] = test system: TALEN L 102066 (synthetic (Xanthomonas TALE scaffold)); conditions: K562, partner TALEN R
[38] = test system: TALEN L 102072 (synthetic (Xanthomonas TALE scaffold)); conditions: K562, partner TALEN R
[39] = test system: TALEN L 102075 (synthetic (Xanthomonas TALE scaffold)); conditions: K562, partner TALEN R
[40] = test system: TALEN L 102076 (synthetic (Xanthomonas TALE scaffold)); conditions: K562, partner TALEN R
[41] = test system: TALEN L 102077 (synthetic (Xanthomonas TALE scaffold)); conditions: K562, partner TALEN R
[42] = test system: TALEN L 102078 (synthetic (Xanthomonas TALE scaffold)); conditions: K562, partner TALEN R
[43] = test system: TALEN L 102083 (synthetic (Xanthomonas TALE scaffold)); conditions: K562, partner TALEN R
[44] = test system: TALEN L 102085 (synthetic (Xanthomonas TALE scaffold)); conditions: K562, partner TALEN R
[45] = test system: TALEN L 102202 (synthetic (Xanthomonas TALE scaffold)); conditions: K562, partner TALEN R
[46] = test system: TALEN L 102203 (synthetic (Xanthomonas TALE scaffold)); conditions: K562, partner TALEN R
[47] = test system: TALEN L 102204 (synthetic (Xanthomonas TALE scaffold)); conditions: K562, partner TALEN R
[48] = test system: TALEN L 102205 (synthetic (Xanthomonas TALE scaffold)); conditions: K562, partner TALEN R
[49] = test system: TALEN L 102206 (synthetic (Xanthomonas TALE scaffold)); conditions: K562, partner TALEN R
[50] = test system: TALEN L 102208 (synthetic (Xanthomonas TALE scaffold)); conditions: K562, partner TALEN R
[51] = test system: TALEN L 102209 (synthetic (Xanthomonas TALE scaffold)); conditions: K562, partner TALEN R
[52] = test system: TALEN L 102210 (synthetic (Xanthomonas TALE scaffold)); conditions: K562, partner TALEN R
[53] = test system: TALEN L 102211 (synthetic (Xanthomonas TALE scaffold)); conditions: K562, partner TALEN R
[54] = test system: TALEN L 102213 (synthetic (Xanthomonas TALE scaffold)); conditions: K562, partner TALEN R
[55] = test system: TALEN L 102214 (synthetic (Xanthomonas TALE scaffold)); conditions: K562, partner TALEN R
[56] = test system: TALEN L 102215 (synthetic (Xanthomonas TALE scaffold)); conditions: K562, partner TALEN R
[57] = test system: TALEN L 102216 (synthetic (Xanthomonas TALE scaffold)); conditions: K562, partner TALEN R
[58] = test system: TALEN L 102217 (synthetic (Xanthomonas TALE scaffold)); conditions: K562, partner TALEN R
[59] = test system: TALEN L 102219 (synthetic (Xanthomonas TALE scaffold)); conditions: K562, partner TALEN R
[60] = test system: TALEN L 102224 (synthetic (Xanthomonas TALE scaffold)); conditions: K562, partner TALEN R
[61] = OT2, L*/L* homodimer, about 180-fold below L

CCCGATGAAGCCCCAGGTGTTTTAAAT (double strand) [OT2 right half]
activity ([1]; OT2, L/L homodimer): 3.18 % indels
activity [2, 61]: 0.017 % indels

CTTCATTACACCTGCAGCTCTCA (double strand) [CCR5 +17 target, left half]
activity ([3]; K562, partner R2+17, cold shock): > 85 % indels
activity [4]: > 85 % indels

CTTGATTCCACCTGTAGCTCCGAGCAAA (double strand) [OT2 left half]
activity ([1]; OT2, L/L homodimer): 3.18 % indels
activity [2, 61]: 0.017 % indels

GTTACCAGATATCCTTTCTGGAAGAAA (double strand) [OT1 right half]
activity ([5]; OT1, L/R): 3.17 % indels
activity ([6]; OT1, L*/R*, 0.663 for L/R*): 0.32 % indels

TCTTCCAGAATTGATACT (double strand) [TALEN R binding site (CCR5)]
activity ([5]; K562, L/R): 50.6 % indels
activity [7]: 27.8 % indels
activity [8]: 24.9 % indels
activity [9]: 29.7 % indels
activity [10]: 6.1 % indels
activity [11]: 27.7 % indels
activity [12]: 32.8 % indels
activity [13]: 29.1 % indels
activity [14]: 7.6 % indels
activity [15]: 4.7 % indels
activity [16]: 31.4 % indels
activity [17]: 33.7 % indels
activity [18]: 31.2 % indels
activity [19]: 23.6 % indels
activity [20]: 25.4 % indels
activity [21]: 23.4 % indels
activity [22]: 24.9 % indels
activity [23]: 9.3 % indels
activity [24]: 23.1 % indels
activity [25]: 22.9 % indels
activity ([6]; K562, L*/R*, 55.53 with L): 65.2 % indels

TTCATTACACCTGCAGCT (double strand) [TALEN L binding site (CCR5)]
activity ([1]; K562, L/R): 50.6 % indels
activity [26]: 20.3 % indels
activity [27]: 1.3 % indels
activity [28]: 17.3 % indels
activity [29]: 16.8 % indels
activity [30]: 17.2 % indels
activity [31]: 4.2 % indels
activity [32]: 22.4 % indels
activity [33]: 33.6 % indels
activity [34]: 25.9 % indels
activity [35]: 30.1 % indels
activity [36]: 30.9 % indels
activity [37]: 22.9 % indels
activity [38]: 24.5 % indels
activity [39]: 10.7 % indels
activity [40]: 21.6 % indels
activity [41]: 23.8 % indels
activity [42]: 25.1 % indels
activity [43]: 27 % indels
activity [44]: 26.1 % indels
activity [45]: 32.4 % indels
activity [46]: 16.6 % indels
activity [47]: 36.6 % indels
activity [48]: 40.2 % indels
activity [49]: 23.5 % indels
activity [50]: 27.9 % indels
activity [51]: 28.4 % indels
activity [52]: 33.6 % indels
activity [53]: 23.2 % indels
activity [54]: 34.1 % indels
activity [55]: 31.2 % indels
activity [56]: 29 % indels
activity [57]: 35.4 % indels
activity [58]: 34.5 % indels
activity [59]: 37.8 % indels
activity [60]: 38.7 % indels
activity ([2]; K562, L*/R*, cold shock, 58.66 with R): 65.2 % indels

TTTACCCTGCAGGTGTGATGAAT (double strand) [+17_OT1 right half]
off-target activity reduction (fold reduction vs L+17) [3]: > 100

TTTAGATACACCTACCTATAAAT (double strand) [+17_OT1 left half]
off-target activity reduction (fold reduction vs L+17) [3]: > 100

TTTTATTACACTTCCAGATCTTTTATT (double strand) [OT1 left half]
activity ([1]; OT1, L/R): 3.17 % indels
activity ([2]; OT1, L*/R*, cold shock, 1.967 for L*/R): 0.32 % indels
